The nanobody polyreactivity screen of Harvey et al. (2022)

Assay: yeast display, Sf9 membrane polyspecificity reagent, FACS + sequencing; frameworks hold sequencing errors
Outline: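 Synthetic nanobody libraries on Saccharomyces cerevisiae BJ5465 were galactose-induced for 36–48 hours, stained 1 hour at 4 °C with 10% biotinylated, detergent-solubilized Sf9 membrane reagent and enriched on streptavidin microbeads. FACS then separated cells into low and high (top ~1%) gates by anti-HA (expression) and streptavidin (reagent binding) fluorescence. Genes were colony-PCR amplified, MiSeq 2 × 250 sequenced and CDR-length filtered. A clone's polyreactivity label is that of its gate of origin.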

Sequence | polyreactivity (PSR sort gate)
QVQLVESGGGLVQAGGSLRLSSAASGSIFRWYAMGWYRQAPGKERELVAAISRGGRTNYADSVKGRFTISRDNAKNTVYLQMNSLKPEDTAVYYCNKVLRNYSSTGVISVLTDYDYWGQGTQVTVSS | high polyreactivity
QVQLVESGGGLVQAGGSLRISCAASGFIFGGYAMGWYRQAPGKERELVAAISYSGGSTYYADSVKGRFTISRDNAKNTVYLQMNSLKPEDTAVYYCAVGYPYRYDYWGQGTQVTVSS | high polyreactivity
QVQLVESGGGLVQAGGSLRLSCAASGITFDGYDMGWYRQAPGKEREMVATIDSGGITYYADSVKGRFTISRDNAKNTVYLQMNSLKPEDTAVYYCNADEWYYNFDIVEFDYWGQGTQVTVSS | low polyreactivity
QVQLVESGGSIVQAGGSLRLSCAASGSTFDVYDMGWYRHAPGKERELVAAITTSGGGTYYADSVKGRFTISRDNAKNTGYLQMNSLKPEDTAVYYCAADTWRDGDDYWGQGTQVTVSS | low polyreactivity
QVQLVESGGGLVQAGGSLRLSCAASGITFARYAMGWYRQAPGKERELVAAITRSGGSTNYADSVKGRFTISRDNAKNTVYLQMNSLKPEDTAVYYCAAAGYRFRFVYSRYEYWGQGTQVTVSS | high polyreactivity
QVKLVESGGALVQAGGSLRLSCAASGRNFSSYAMGRYRQAPGKERYLVARISSSGGGTSYADSVKGRFTISRDNAKNTVYLQMNSLKPEDTAVYYCAAEDQYYRYFFSYEYWGQGTQVTVSS | high polyreactivity
QVQLVESGGGLVQAGGSLRLSCAASGRTFAVNAMGWYRQAPGTERELVAAISLSGGRTYYADSVKGRFTISRDNAKNTVSLQMNSLKPEDTAVYYCAASRHFARHRGYYFRYDYWGQGTQVTVSS | high polyreactivity
QVQIVESGAGLVQAGGSLRLSCAPSGRIFVTNAMGWYRQSPGKERELGAAITSGGSTYYADSVKGRFTISRDNAKNNVYLQMNSLKPEDTAVFYCARPVFSQRYVTTRYDYWGQGTQVTVSS | low polyreactivity
QVQLEESGGGLVQAGGSLRLSCAASGIIFRFYTMGWYRQAPGKERELVAVITWSGGSTYYADSVKGRFSISRDNAMNTVYLQMNSLKPEATAVYYCNAEYTYGNSVYKYDYWGQGTQVTVSS | low polyreactivity
QVQLVESGGGLVQAGGSLRLSCAASGSTIPSYAMGWYRPAPGKETELVASITYSDGTTRYADSVKGRFTISRDNAKNTVYLQMNSLIPEDTAVYYCNAVYYREGMDYWGQGTQVTVSS | low polyreactivity
QVQLVESGGGLVQAGGSLRLSCADSGNIIWGNAIGWYRQAPGKERELVAAISRRSGSTYYADSVKGRFTISRDNAKNTVYLQMNSLKPEDTAVYYCNTAGRVGTYDYWGQGTQVTVSS | high polyreactivity
QVQLVESGGGLVQAGGSLRLSCAASGSIFNSNAMGWYRQAPGKERELVAVISWSDGSTRYADSVKGRFTISRDNAKNTVYLQMNSLKPEDTAVYYCNADLVYYYRQEVDYWGQGTEVTVSS | low polyreactivity
QVQLVESGGGLVQAGGSLRLSCAASGFTFTAYAMGWYRQAPGKERELVAAISSGGSTYYADSVKGRFTISRDNAKNTVYLQMNSLKPEDTAVYYCAAVGVYTVKREYWGQGTQLTVSS | low polyreactivity
QVQLVESGGGLVQAGGSLRLSCAASGFIFGSYTMGWYRQAPGKERELVAAISWSSGCSTYYADSVKGRFTISRDNAKNTVYLQMNSLKPEDTAVYYCAARHRGAGRNDFYYWGQGTQVTVSS | high polyreactivity
QVQLVESGGGLVQAGGSLRLSCAASGFIFGQYAMGWYRQAPGKERELVAAISRSGGSTYYADSVKGRFTISRDNAKNTVYLQMNSLKPEDTAVYYCNRRDRGDSYRLDYWGQGTQVTVSS | high polyreactivity
QDQHGESGGGLVQAGGSLRLSCAASGFIFWSYTMGWYRQAPGKERELVAVITGSGSTYYADSVKGRFTISRDNAKNTVYFQMNSLKPEDTALYYCATEVHVTAWTFEYEYWGQGTQVTVSS | low polyreactivity
QVQLVESGGGLVQAGGSLRLSCAASGRTFERNAMGWYRQAPGKERELVAAITWSGVSTYYADSVKGRFTISRDNAKNTVYLQMNSLKPEDTAVYYCAADWDWRFHRMNYWGQGTQVTVSS | low polyreactivity
QVQLVESGGGLVQAGGSLRLSCAASGFTLRGNAMGWYRPAPGKERELVAAISTGGSTYYADSVKGRFTISRDNAKNTVYLQMNSLKPEDTAVYYCARRGWFHYRYYYWGQGTQATVSS | high polyreactivity
QVQLVESGGGLVQAGGSLRLSCAASGRIFTGYAMGWYRQAPGTERELVAAISDGGSTNYADSVKGRFTISRDNAKNTVYLQMNSLKPEDTAVYYCAADGHSSDKYDYWGQGTQVTVSS | low polyreactivity
QVQLVESGGGLVQAGGSLRLSCAASGYIFRFNAMGWYRQAPGKERELVAVITSGARTYYADSVKGRFTISRDNAKNTFYLLMNSLKPEDTAVYYCNAGARRYLYDYWGQGTQVTVSS | low polyreactivity
QVQLVESGGGLVQAGGSLRLSCAASGSTLRHNVMGWYRQAPGKERELVAAITFSGGSTTYADSVKGRFTISRDNAKNTVYLQMNSLKPEDTAVYYCNAVYAGAGSFHPGYGYWGQGTQVTVSS | low polyreactivity
QVQLVESGGGLVQAGGSLRLSCAASGFIFYRNTMGWYRQAPGKESELVAAISRRGGNTYYADSVKGRFTISRDYAKNTVYLQMNSLKPEDTAVYYCNADGNAVYNRVSYDYWGQGTQVTVSS | high polyreactivity

Sequence | polyreactivity (PSR sort gate)
QVQLVESGGGLVQAGGSLRLSCAASGRTFFWNAMGWYRQAPGKERELVATISRSGGSTYYADSVKGRFTISRDNAKNTVYLQMNSLKPEDTAVYYCAAQYVRRSRKYDYWGQGTQVTVSS | high polyreactivity
QVQLVESGGGLVQAGGSLRLSCAASGSTFSSYGMGWYRQAPGKERELVAAISKRGGSTYYADSVKGRFTISRDNAKNTVYLQMNSLKPEDTAVYYCAAAVRKQGYSTLFDYWGQGTQVTVSS | high polyreactivity
QVQLVESGGGLVQAGGSLRLSCAASGRTFTVNAMGWSRQAPGKERELVAAISTSTGRTYYADSVKGRFTISRDNAKNTVYLQMNSLKPEDTAVYYCAAQSPYRGYYYTYYLYDYWGQGTQVTVSS | high polyreactivity
QVQLVESGGGLVQAGGSLRLSCAASGNTFAVNAMGWYRQAPGKERELVAAISKRGGRTYYADSVKGRFTISRDNAKNTVYLQMNSLKPEDTAVYYCNTGYIFSSFYSSKYGYWGQGTQVTVSS | high polyreactivity
QDQLVESGGGLVQAGGSLRLSCAASGFTFYLYAMGWYRQAPGKERELVAAINGGGSSTYYADSVKGRFTISRDNAKTTVYLEMNSLKPEDTAVYYCNAVYYVVYVKEFDYWGQGTQVTVSS | high polyreactivity
QVQLVESGGGLVQAGGSLRLSCAASGSIFSSYAMGWYRQAPGKERELVAGISKSGGSTYYADSVKGRFTISRDNAKNTVYLQMNSQKPEDTAVYYCAGPSYWGGGRYRYGYWGQGTQVTVSS | high polyreactivity
QVQLVESGGGLVQAGGSLRLSCAASGSTLSDNAMGWYRQAPGKERELVASISWSGGTYYADSVKGRFTISRDNAKNTVYLQMNSLKPEDTAVYYCAAYIYYNYSRQYWFDYWGQGTQVTVSS | low polyreactivity
QVQLVESGGGLVQAGGSLRLSCAASGRIFIVYVMVWYRQAPGKESELVAAITGRGGSTYYADSVKGRFTISHDNAKNTVYLQMNSLKPEDTAVYYCDDYDGGGYDSWGQGNQVTVSS | low polyreactivity
QVQLVESGGGLVQAGGSLRLSCAASGFTFSHYPMGWYRQAPGKERELVASISRRCGTTYYADSVKGRFTISRDNAKNTVYLQMNSLKPEDTAVYYCAVDLYIYYREYDYWGQGTQVTVSS | high polyreactivity
QVQLVESGGGLVQAGGSLRLSCAASGGIIQGYSMVWYRQAPGKERELVAAISSSGGTTYYADSVKGRFTISRDNAKNTVYLQMNSLKPEDTAVYYCAAPTHSPYDYWGQGTQVTVSS | low polyreactivity
QVQLVESGGGLVQAGGSLRLSCAASGSIFNPYTMGWYRQAPGKERELVAAISASGGSTYYADSVKGRFTISRDNAKYTVYLQMNCLKPEDTAVYYCNVYRITRHSYNFGFDYWGQGTQVTVSS | low polyreactivity
QVQLVESGGGLVQAGGSLRLSCAASGSTFGYNGMGWYRQGPGKERELVAAISGGARTYADSVKGRFTISRDNAKNTVYLQMNSLKPEDTAVYYCAADSPVSVTADDGYWGQGTQLTVSS | low polyreactivity
QVQLVESGGGLVQAGGSLRLSCAASGSTFPLYVMGWYRQSPGKERELVAAIDWSGGSTYYADSVKGRFTISRDNAKNTVFLQMNSLKPVDTAVYYCNRKRYGYDYEYWGQGTQVTVSS | low polyreactivity
QLQLVESGGGLVQAGCSLRLSFAASVIICWANAMGCYIHAPGKERELVASITSGGSTYYADSVKGRFTISRDNAKTTVYFQMNSLKPEDTAVYYCAADPYGWWDWHTLGTYDYWGQGTQVTVSS | low polyreactivity
QVQLVESGGGLVQAGGSLRLSCAASGRIFYRYTMGWYRQAPGKERELVAAITRGGNTYYADSVKGRFTISRDNAKNTVYLQMNSLKPEDTAVYYCAKKAPSDRNNYWGQGTQVTVSS | high polyreactivity
QVQLVESGGGLVQAGGSLRLSCAASGIIFRVNAMGWYRQAPGKERELVAAISSGGRTYYADSVKGRFTISGDNAKNTVSLQMNSLKPEDTAVYYCNAGRLRYIFKSYDYWGQGTQVSVSS | high polyreactivity
QVQLVESGGGLVQAGGSLSLSCAASGRIFPYNDLGWYRQAPGKERELVADINSGDSTNYADSVKGRFTISRDNAKNTVYLQMNSLKPEDTAVYYCAAGYVRYPGVIDEYWGQGTQVTVSS | low polyreactivity
QVQLVESGGGLVQAGGSLRLSCAASGSIFWHNAMGWYRQAPGTEREFVAAISGSGGSTYYADSVKGRFTISRDNAKNTVYLQMISLKPEDTAVYYCAADIYYWSFYYSRYDYWGQGTQVTVSS | high polyreactivity
QVQLVESGGGLVQAGGSLRLSCAASGRTFPGYAMGWYRQAPGKEREVVAGISYRGGSTYYADSVKGRFTISRDNPKNTVYLQMNSLKPVDTAVYYCARDYSRHKGDYWGQGTQVTVSS | low polyreactivity
QVQLVESGGGLVQAGGSLRLSCAASGFTFYQYAMGWYRQAPGKERELVASISWSGGRTYYADSVKGRFTISRDNAKKTVYFQKNSLKPEDTAVYYCAARAYRIAGYDYWGQGTQVTVSS | high polyreactivity
QVQLVESGGGLVQAGGSLRLSCAASGYTFLPYAMGLYRQAPGKERELVADISSGGTTYYADSVKGRFTISRDNAKNTVYLQMNSLKPEDTAVYYCARASLPTYDWGQGTQVTVSS | low polyreactivity
